The record followed here is patent publication US11965039B2, “Compstatin analogues and their medical uses” (priority 2018, dated 2024).

As a reminder, the Kd is the equilibrium constant for the complex coming apart. A low value points to higher affinity.

Starred links: 1 amine or outer side, 2 acyl side, 3 side chain; linkers in the order of their positions; H or OH if unused. Positions of bridges follow the written chain, without caps; N, C: chain ends. Non-standard residues stand in square brackets, D forms with d. Groups on a side chain read outwards from the residue. No end group written: not given here. *: point of attachment. X1 = K(γGlu-G-γGlu-17-carboxy-heptadecanoyl), O=C(O)CCCCCCCCCCCCCCCCC(=O)N[C@@H](CCC(=O)NCC(=O)N[C@@H](CCC(=O)NCCCC[C@H](N[*:1])C(=O)[*:2])C(=O)O)C(=O)O; Trp(1-Me) = Cn1cc(C[C@H](N)C(=O)O)c2ccccc21; C18 diacid = O=C(O)CCCCCCCCCCCCCCCCC(=O)*; γGlu = O=C(O)[C@H](CCC(=O)[*:2])N[*:1]; 1Nal = N[C@@H](Cc1cccc2ccccc12)C(=O)O; 2Nal = N[C@@H](Cc1ccc2ccccc2c1)C(=O)O; AEEA = NCCOCCOCC(=O)O; Sar = CNCC(=O)O Some results are limits rather than exact numbers.

B1: Compound 29 (peptide)
peptide: Ac-EGSAICIWQDWGEHRCT-NH2
modifications: disulfide 6-16
SMILES: CC[C@H](C)[C@H](NC(=O)[C@H](C)NC(=O)[C@H](CO)NC(=O)CNC(=O)[C@H](CCC(=O)O)NC(C)=O)C(=O)N[C@H]1CSSC[C@@H](C(=O)N[C@H](C(N)=O)[C@@H](C)O)NC(=O)[C@H](CCCNC(=N)N)NC(=O)[C@H](Cc2c[nH]cn2)NC(=O)[C@H](CCC(=O)O)NC(=O)CNC(=O)[C@H](Cc2c[nH]c3ccccc23)NC(=O)[C@H](CC(=O)O)NC(=O)[C@H](CCC(N)=O)NC(=O)[C@H](Cc2c[nH]c3ccccc23)NC(=O)[C@H]([C@@H](C)CC)NC1=O
B2: Compound 49 (peptide)
peptide: Ac-EGSAICI[Trp(1-Me)]QDWGEHRC[Sar]E-NH2
modifications: disulfide 6-16
SMILES: CC[C@H](C)[C@H](NC(=O)[C@H](C)NC(=O)[C@H](CO)NC(=O)CNC(=O)[C@H](CCC(=O)O)NC(C)=O)C(=O)N[C@H]1CSSC[C@@H](C(=O)N(C)CC(=O)N[C@@H](CCC(=O)O)C(N)=O)NC(=O)[C@H](CCCNC(=N)N)NC(=O)[C@H](Cc2c[nH]cn2)NC(=O)[C@H](CCC(=O)O)NC(=O)CNC(=O)[C@H](Cc2c[nH]c3ccccc23)NC(=O)[C@H](CC(=O)O)NC(=O)[C@H](CCC(N)=O)NC(=O)[C@H](Cc2cn(C)c3ccccc23)NC(=O)[C@H]([C@@H](C)CC)NC1=O
B3: Compound 142 (peptide)
peptide: Ac-SEFCI[Trp(1-Me)]QDWGEHRCTEGE
modifications: disulfide 4-14; not fully specified (C-terminus); printed as Ac-SEFC(1)I[1-Me-Trp]QDWGEHRC(1)TEGE[Peg3]ES-K([17-carboxy-heptadecanoyl][γGlu])-NH2
B4: Compound 139 (peptide)
peptide: Ac-SEFCI[Trp(1-Me)]QDWGEHRC[Sar]EGESESK([γGlu-Gly-γGlu-C18 diacid])-NH2
modifications: disulfide 4-14
SMILES: CC[C@H](C)[C@@H]1NC(=O)[C@@H](NC(=O)[C@H](Cc2ccccc2)NC(=O)[C@H](CCC(=O)O)NC(=O)[C@H](CO)NC(C)=O)CSSC[C@@H](C(=O)N(C)CC(=O)N[C@@H](CCC(=O)O)C(=O)NCC(=O)N[C@@H](CCC(=O)O)C(=O)N[C@@H](CO)C(=O)N[C@@H](CCC(=O)O)C(=O)N[C@@H](CO)C(=O)N[C@@H](CCCCNC(=O)CC[C@H](NC(=O)CNC(=O)CC[C@H](NC(=O)CCCCCCCCCCCCCCCCC(=O)O)C(=O)O)C(=O)O)C(N)=O)NC(=O)[C@H](CCCNC(=N)N)NC(=O)[C@H](Cc2c[nH]cn2)NC(=O)[C@H](CCC(=O)O)NC(=O)CNC(=O)[C@H](Cc2c[nH]c3ccccc23)NC(=O)[C@H](CC(=O)O)NC(=O)[C@H](CCC(N)=O)NC(=O)[C@H](Cc2cn(C)c3ccccc23)NC1=O
B5: Compound 50 (peptide)
peptide: Ac-EGSAICI[2Nal]QDWGEHRC[Sar]E-NH2
modifications: disulfide 6-16
SMILES: CC[C@H](C)[C@H](NC(=O)[C@H](C)NC(=O)[C@H](CO)NC(=O)CNC(=O)[C@H](CCC(=O)O)NC(C)=O)C(=O)N[C@H]1CSSC[C@@H](C(=O)N(C)CC(=O)N[C@@H](CCC(=O)O)C(N)=O)NC(=O)[C@H](CCCNC(=N)N)NC(=O)[C@H](Cc2c[nH]cn2)NC(=O)[C@H](CCC(=O)O)NC(=O)CNC(=O)[C@H](Cc2c[nH]c3ccccc23)NC(=O)[C@H](CC(=O)O)NC(=O)[C@H](CCC(N)=O)NC(=O)[C@H](Cc2ccc3ccccc3c2)NC(=O)[C@H]([C@@H](C)CC)NC1=O
B6: Compound 63 (peptide)
peptide: Ac-FCI[1Nal]QDWGEHRCTGAES-NH2
modifications: disulfide 2-12
SMILES: CC[C@H](C)[C@@H]1NC(=O)[C@@H](NC(=O)[C@H](Cc2ccccc2)NC(C)=O)CSSC[C@@H](C(=O)N[C@H](C(=O)NCC(=O)N[C@@H](C)C(=O)N[C@@H](CCC(=O)O)C(=O)N[C@@H](CO)C(N)=O)[C@@H](C)O)NC(=O)[C@H](CCCNC(=N)N)NC(=O)[C@H](Cc2c[nH]cn2)NC(=O)[C@H](CCC(=O)O)NC(=O)CNC(=O)[C@H](Cc2c[nH]c3ccccc23)NC(=O)[C@H](CC(=O)O)NC(=O)[C@H](CCC(N)=O)NC(=O)[C@H](Cc2cccc3ccccc23)NC1=O
B7: Compound 61 (peptide)
peptide: Ac-FCI[Trp(1-Me)]QDWGEHRCTGAES-NH2
modifications: disulfide 2-12
SMILES: CC[C@H](C)[C@@H]1NC(=O)[C@@H](NC(=O)[C@H](Cc2ccccc2)NC(C)=O)CSSC[C@@H](C(=O)N[C@H](C(=O)NCC(=O)N[C@@H](C)C(=O)N[C@@H](CCC(=O)O)C(=O)N[C@@H](CO)C(N)=O)[C@@H](C)O)NC(=O)[C@H](CCCNC(=N)N)NC(=O)[C@H](Cc2c[nH]cn2)NC(=O)[C@H](CCC(=O)O)NC(=O)CNC(=O)[C@H](Cc2c[nH]c3ccccc23)NC(=O)[C@H](CC(=O)O)NC(=O)[C@H](CCC(N)=O)NC(=O)[C@H](Cc2cn(C)c3ccccc23)NC1=O
B8: Compound 43 (peptide)
peptide: Ac-FCIWQDWGEHRCTGAE-NH2
modifications: disulfide 2-12
SMILES: CC[C@H](C)[C@@H]1NC(=O)[C@@H](NC(=O)[C@H](Cc2ccccc2)NC(C)=O)CSSC[C@@H](C(=O)N[C@H](C(=O)NCC(=O)N[C@@H](C)C(=O)N[C@@H](CCC(=O)O)C(N)=O)[C@@H](C)O)NC(=O)[C@H](CCCNC(=N)N)NC(=O)[C@H](Cc2c[nH]cn2)NC(=O)[C@H](CCC(=O)O)NC(=O)CNC(=O)[C@H](Cc2c[nH]c3ccccc23)NC(=O)[C@H](CC(=O)O)NC(=O)[C@H](CCC(N)=O)NC(=O)[C@H](Cc2c[nH]c3ccccc23)NC1=O
B9: Compound 23 (peptide)
peptide: Ac-FCIWQDWGEHRCT-NH2
modifications: disulfide 2-12
SMILES: CC[C@H](C)[C@@H]1NC(=O)[C@@H](NC(=O)[C@H](Cc2ccccc2)NC(C)=O)CSSC[C@@H](C(=O)N[C@H](C(N)=O)[C@@H](C)O)NC(=O)[C@H](CCCNC(=N)N)NC(=O)[C@H](Cc2c[nH]cn2)NC(=O)[C@H](CCC(=O)O)NC(=O)CNC(=O)[C@H](Cc2c[nH]c3ccccc23)NC(=O)[C@H](CC(=O)O)NC(=O)[C@H](CCC(N)=O)NC(=O)[C@H](Cc2c[nH]c3ccccc23)NC1=O
B10: Compound 140 (peptide)
peptide: Ac-SEFCI[Trp(1-Me)]QDWGEHRC[Sar]EGE[AEEA]ES-{X1-NH2}
modifications: disulfide 4-14
SMILES: CC[C@H](C)[C@@H]1NC(=O)[C@@H](NC(=O)[C@H](Cc2ccccc2)NC(=O)[C@H](CCC(=O)O)NC(=O)[C@H](CO)NC(C)=O)CSSC[C@@H](C(=O)N(C)CC(=O)N[C@@H](CCC(=O)O)C(=O)NCC(=O)N[C@@H](CCC(=O)O)C(=O)NCCOCCOCC(=O)N[C@@H](CCC(=O)O)C(=O)N[C@@H](CO)C(=O)N[C@@H](CCCCNC(=O)CC[C@H](NC(=O)CNC(=O)CC[C@H](NC(=O)CCCCCCCCCCCCCCCCC(=O)O)C(=O)O)C(=O)O)C(N)=O)NC(=O)[C@H](CCCNC(=N)N)NC(=O)[C@H](Cc2c[nH]cn2)NC(=O)[C@H](CCC(=O)O)NC(=O)CNC(=O)[C@H](Cc2c[nH]c3ccccc23)NC(=O)[C@H](CC(=O)O)NC(=O)[C@H](CCC(N)=O)NC(=O)[C@H](Cc2cn(C)c3ccccc23)NC1=O
B11: Compound 141 (peptide)
peptide: Ac-SEFCI[Trp(1-Me)]QDWGEHRC[Sar]EGESESK([γGlu-C18 diacid])-NH2
modifications: disulfide 4-14
SMILES: CC[C@H](C)[C@@H]1NC(=O)[C@@H](NC(=O)[C@H](Cc2ccccc2)NC(=O)[C@H](CCC(=O)O)NC(=O)[C@H](CO)NC(C)=O)CSSC[C@@H](C(=O)N(C)CC(=O)N[C@@H](CCC(=O)O)C(=O)NCC(=O)N[C@@H](CCC(=O)O)C(=O)N[C@@H](CO)C(=O)N[C@@H](CCC(=O)O)C(=O)N[C@@H](CO)C(=O)N[C@@H](CCCCNC(=O)CC[C@H](NC(=O)CCCCCCCCCCCCCCCCC(=O)O)C(=O)O)C(N)=O)NC(=O)[C@H](CCCNC(=N)N)NC(=O)[C@H](Cc2c[nH]cn2)NC(=O)[C@H](CCC(=O)O)NC(=O)CNC(=O)[C@H](Cc2c[nH]c3ccccc23)NC(=O)[C@H](CC(=O)O)NC(=O)[C@H](CCC(N)=O)NC(=O)[C@H](Cc2cn(C)c3ccccc23)NC1=O
B12: Compound 67 (peptide)
peptide: Ac-SEFCI[Trp(1-Me)]QDWGEHRCTGAES-NH2
modifications: disulfide 4-14
SMILES: CC[C@H](C)[C@@H]1NC(=O)[C@@H](NC(=O)[C@H](Cc2ccccc2)NC(=O)[C@H](CCC(=O)O)NC(=O)[C@H](CO)NC(C)=O)CSSC[C@@H](C(=O)N[C@H](C(=O)NCC(=O)N[C@@H](C)C(=O)N[C@@H](CCC(=O)O)C(=O)N[C@@H](CO)C(N)=O)[C@@H](C)O)NC(=O)[C@H](CCCNC(=N)N)NC(=O)[C@H](Cc2c[nH]cn2)NC(=O)[C@H](CCC(=O)O)NC(=O)CNC(=O)[C@H](Cc2c[nH]c3ccccc23)NC(=O)[C@H](CC(=O)O)NC(=O)[C@H](CCC(N)=O)NC(=O)[C@H](Cc2cn(C)c3ccccc23)NC1=O

T1 sequence (P01024 23-1663 limits assumed): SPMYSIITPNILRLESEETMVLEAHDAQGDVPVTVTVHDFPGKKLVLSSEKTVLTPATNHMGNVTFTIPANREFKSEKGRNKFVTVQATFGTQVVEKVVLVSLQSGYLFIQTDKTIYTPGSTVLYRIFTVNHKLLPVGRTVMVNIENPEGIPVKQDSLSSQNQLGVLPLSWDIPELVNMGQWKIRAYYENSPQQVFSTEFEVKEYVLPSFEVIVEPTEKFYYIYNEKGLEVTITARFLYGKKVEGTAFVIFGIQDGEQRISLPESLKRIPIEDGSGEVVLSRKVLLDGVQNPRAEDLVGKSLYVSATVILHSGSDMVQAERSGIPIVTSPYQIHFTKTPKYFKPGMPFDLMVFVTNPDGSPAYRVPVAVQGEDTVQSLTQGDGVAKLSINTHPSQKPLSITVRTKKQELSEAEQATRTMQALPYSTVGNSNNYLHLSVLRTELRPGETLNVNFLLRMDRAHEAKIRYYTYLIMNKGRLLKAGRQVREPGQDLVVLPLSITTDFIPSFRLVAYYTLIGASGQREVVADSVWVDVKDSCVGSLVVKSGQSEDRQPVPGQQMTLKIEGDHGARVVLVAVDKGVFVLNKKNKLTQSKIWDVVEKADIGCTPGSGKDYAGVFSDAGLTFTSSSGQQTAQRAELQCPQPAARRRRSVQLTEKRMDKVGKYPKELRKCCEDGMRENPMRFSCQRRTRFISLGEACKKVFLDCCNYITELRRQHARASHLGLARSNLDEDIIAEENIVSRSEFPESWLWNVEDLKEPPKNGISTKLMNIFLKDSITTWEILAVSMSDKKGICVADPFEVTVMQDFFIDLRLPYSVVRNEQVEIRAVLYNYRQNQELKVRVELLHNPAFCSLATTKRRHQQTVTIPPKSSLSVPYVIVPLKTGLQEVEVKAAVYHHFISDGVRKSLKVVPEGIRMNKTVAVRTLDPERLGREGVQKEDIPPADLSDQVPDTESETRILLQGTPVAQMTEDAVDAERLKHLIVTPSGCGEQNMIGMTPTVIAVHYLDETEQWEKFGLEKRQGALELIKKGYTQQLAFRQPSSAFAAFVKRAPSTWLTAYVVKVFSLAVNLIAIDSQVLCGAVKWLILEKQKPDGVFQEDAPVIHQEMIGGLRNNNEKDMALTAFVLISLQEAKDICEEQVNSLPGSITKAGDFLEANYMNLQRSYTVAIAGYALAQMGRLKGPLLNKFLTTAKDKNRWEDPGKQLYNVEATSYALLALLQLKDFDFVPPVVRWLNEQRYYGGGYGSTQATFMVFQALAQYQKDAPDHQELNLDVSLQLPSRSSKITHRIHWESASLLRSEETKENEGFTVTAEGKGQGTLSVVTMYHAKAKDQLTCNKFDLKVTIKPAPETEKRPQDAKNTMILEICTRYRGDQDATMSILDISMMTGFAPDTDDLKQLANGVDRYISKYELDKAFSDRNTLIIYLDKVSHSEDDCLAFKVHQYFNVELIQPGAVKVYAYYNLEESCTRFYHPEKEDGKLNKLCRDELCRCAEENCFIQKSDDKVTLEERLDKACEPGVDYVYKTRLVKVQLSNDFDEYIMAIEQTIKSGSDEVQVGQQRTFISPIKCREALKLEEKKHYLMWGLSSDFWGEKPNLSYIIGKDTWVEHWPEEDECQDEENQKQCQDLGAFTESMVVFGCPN

The first experiment has as its target T1, Human C3 (Complement tech cat #A113c) (human, UniProt P01024 23-1663). Put plainly: cell-based or functional assay.
Consider B1, for which the “inhibition of hemolysis IC50” value is under 100 nM.

For the molecule B2, the “inhibition of hemolysis IC50” value was under 100 nM.

As to B3, the “inhibition of hemolysis IC50” value was under 100 nM.

In the case of B4, the “inhibition of hemolysis IC50” value was under 100 nM.

B5: the “inhibition of hemolysis IC50” value is under 100 nM.

B6: the “inhibition of hemolysis IC50” value is under 100 nM.

As to B7, the “inhibition of hemolysis IC50” value is under 100 nM.

As to B8, the “inhibition of hemolysis IC50” value is under 100 nM.

For the molecule B9, the “inhibition of hemolysis IC50” value was under 100 nM.

In the case of B10, the “inhibition of hemolysis IC50” value is under 100 nM.

Turning to B11, the “inhibition of hemolysis IC50” value is under 100 nM.

Take B12: the “inhibition of hemolysis IC50” value was under 100 nM.

The target of another experiment is T1, Human C3 (Complement tech cat #A113c). Description: SPR (Biacore T200), human C3 immobilised, peptide injected, 1:1 fit. Summed up: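 Human C3 amine-coupled on CM5 chips to about 3000 RU. Multi-cycle runs on Biacore T200 at 25° C: peptides at 6-8 rising concentrations, 60-120 s at 30 µL/min in 10 mM Tris pH 7.4, 150 mM NaCl, 0.05% Tween20, dissociation up to 10 min; 3 M MgCl2 regeneration. Kd derived.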
On the technique in general: In SPR one partner is held on a chip, and binding of the other changes the refractive index at the surface.
The molecule B1 registered a Kd of 21 nM. This counts as double-digit nanomolar.

B2 had a Kd of 3.2 nM.

As for B3, the Kd was 4.8 nM.

In turn, B4 gave a dissociation constant (Kd) of 7.4 nM.

Consider B5, for which the affinity, expressed as Kd, was 13 nM. Against the preceding molecule, the Kd is about 1.8-fold higher.

B6 yielded a Kd of 4.3 nM.

B7: the Kd is 0.33 nM.

B8 yielded a Kd of 3.3 nM.

The molecule B9 displayed a Kd of 2.8 nM.

Take B10: the Kd was 7.6 nM.

Molecule B11 returned a Kd of 6.6 nM. This Kd and that of the molecule before are within 1.5-fold of each other.

As to B12, binding was characterised by a dissociation constant (Kd) of 0.68 nM.
